Molecular target: the molecule itself
Assay: SEC; Superdex 75 HiLoad 16/60, 25 mM sodium phosphate, 100 mM NaCl, no reducing agent; monomer and dimer

B1: His6-tagged recombinant NOD1 CARD (residues 15-110), wild type (domain or fragment, human, UniProt Q9Y239-1 15-110, looked up)
chain: ESHPHIQLLKSNRELLVTHIRNTQCLVDNLLKNDYFSAEDAEIVCACPTQPDKVRKILDLVQSKGEEVSEFFLYLLQQLADAYVDLRPWLLEIGFS
notes: NOD1 CARD domain, human, residues 15-110; the dimer is stabilised by an interprotomer disulfide bond through Cys-39 (from the cited crystal structures); also called wild-type NOD1 CARD; wild-type NOD1
B1 was tested, and the “stoichiometry N” value was 2.

B2: His6-tagged recombinant NOD1 CARD (residues 15-110) N43S (domain or fragment, human, UniProt Q9Y239-1 15-110, looked up)
chain: ESHPHIQLLKSNRELLVTHIRNTQCLVDSLLKNDYFSAEDAEIVCACPTQPDKVRKILDLVQSKGEEVSEFFLYLLQQLADAYVDLRPWLLEIGFS
notes: NOD1 CARD domain, human, residues 15-110, N43S (a rare polymorphism)
B2 was tested, and the “stoichiometry N” value was 2.

B3: His6-tagged recombinant NOD1 CARD (residues 15-110) D48K (domain or fragment, human, UniProt Q9Y239-1 15-110, looked up)
chain: ESHPHIQLLKSNRELLVTHIRNTQCLVDNLLKNKYFSAEDAEIVCACPTQPDKVRKILDLVQSKGEEVSEFFLYLLQQLADAYVDLRPWLLEIGFS
notes: NOD1 CARD domain, human, residues 15-110, D48K
With B3 the “stoichiometry N” value was 2.

B4: His6-tagged recombinant NOD1 CARD (residues 15-110) E53K (domain or fragment, human, UniProt Q9Y239-1 15-110, looked up)
chain: ESHPHIQLLKSNRELLVTHIRNTQCLVDNLLKNDYFSAKDAEIVCACPTQPDKVRKILDLVQSKGEEVSEFFLYLLQQLADAYVDLRPWLLEIGFS
notes: NOD1 CARD domain, human, residues 15-110, E53K
With B4 the “stoichiometry N” value was 2.

B5: His6-tagged recombinant NOD1 CARD (residues 15-110) A55V (domain or fragment, human, UniProt Q9Y239-1 15-110, looked up)
chain: ESHPHIQLLKSNRELLVTHIRNTQCLVDNLLKNDYFSAEDVEIVCACPTQPDKVRKILDLVQSKGEEVSEFFLYLLQQLADAYVDLRPWLLEIGFS
notes: NOD1 CARD domain, human, residues 15-110, A55V (a polymorphism)
B5 was tested, and the “stoichiometry N” value was 2.

B6: His6-tagged recombinant NOD1 CARD (residues 15-110) E56K (domain or fragment, human, UniProt Q9Y239-1 15-110, looked up)
chain: ESHPHIQLLKSNRELLVTHIRNTQCLVDNLLKNDYFSAEDAKIVCACPTQPDKVRKILDLVQSKGEEVSEFFLYLLQQLADAYVDLRPWLLEIGFS
notes: NOD1 CARD domain, human, residues 15-110, E56K
For B6, the “stoichiometry N” value was 2.

— PMC4132792, “Engagement of Nucleotide-binding Oligomerization Domain-containing Protein 1 (NOD1) by Receptor-interacting Protein 2 (RIP2) Is Insufficient for Signal Transduction*” (The Journal of Biological Chemistry, 2014)
